Results: IntAct's records for PubMed 11956200

B1: Mitochondrial import inner membrane translocase subunit Tim8 A (Homo sapiens), O60220 (parent)
chain: MDSSSSSSAAGLGAVDPQLQHFIEVETQKQRFQQLVHQMTELCWEKCMDKPGPKLDSRAEACFVNCVERFIDTSQFILNRLEQTQKSKPVFSESLSD
partner: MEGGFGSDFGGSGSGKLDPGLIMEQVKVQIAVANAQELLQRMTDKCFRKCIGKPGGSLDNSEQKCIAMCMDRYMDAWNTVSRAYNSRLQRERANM

Variants of: B1
Conditions: with tim13_human TIMM13, Q9Y5L4

**Q.** How did the “effect of a mutation on the interaction” value turn out when C66W was run?
**A.** Its value is “disrupting interaction strength”.
